Assay results published in patent US9617572B2, “Methods of producing 7-carbon chemicals via aromatic compounds” (INVISTA North America S.á r.l., priority 2012, dated 2017).

Legend:
Type in all cases: biochemical
[1] = Carboxylate reductase activity assay (N7-acetyl-7-aminoheptanoate to N7-acetyl-7-aminoheptanal); details: purified enzyme enhanced by sfp gene product, 2 mM N7-acetyl-7-aminoheptanoate, 1 mM ATP, 1 mM NADPH, pH 7.5, room temperature, 20 min, against empty vector control
Experimental: The activity of each of the N-terminal His-tagged carboxylate reductases of SEQ ID NOs: 3, 6, and 7 (see Example 4, and FIGS. 7B, 7E, and 7F) for converting N7-acetyl-7-aminoheptanoate to N7-acetyl-7-aminoheptanal was assayed in triplicate in a buffer composed of a final concentration of 50 mM HEPES buffer (pH=7.5), 2 mM N7-acetyl-7-aminoheptanoate, 10 mM MgCl2, 1 mM ATP, and 1 mM NADPH. The assays were initiated by adding purified carboxylate reductase and phosphopantetheine transferase or the empty vector control to the assay buffer containing the N7-acetyl-7-aminoheptanoate then incubated at room temperature for 20 min. The consumption of NADPH was monitored by absorbance at 340 nm.

[2] = Carboxylate reductase activity assay (pimelate to pimelate semialdehyde); details: purified enzyme enhanced by sfp gene product, 2 mM pimelate, 1 mM ATP, 1 mM NADPH, pH 7.5, room temperature, 20 min, against empty vector control
Experimental: A sequence encoding a HIS-tag was added to the genes from Segniliparus rugosus and Segniliparus rotundus that encode the carboxylate reductases of SEQ ID NOs: 4 and 7, respectively (see FIGS. 7C and 7F), such that N-terminal HIS tagged carboxylate reductases could be produced. Each of the modified genes was cloned into a pET Duet expression vector along with a sfp gene encoding a HIS-tagged phosphopantetheine transferase from Bacillus subtilis, both under the T7 promoter. Each expression vector was transformed into a BL21[DE3] E. coli host and the resulting recombinant E. coli strains were cultivated at 37° C. in a 250 mL shake flask culture containing 50 mL LB media and antibiotic selection pressure, with shaking at 230 rpm. Each culture was induced overnight at 37° C. using an auto-induction media.
The pellet from each induced shake flask culture was harvested via centrifugation. Each pellet was resuspended and lysed via sonication, and the cell debris was separated from the supernatant via centrifugation. […]
Enzyme activity assays (i.e., from pimelate to pimelate semialdehyde) were performed in triplicate in a buffer composed of a final concentration of 50 mM HEPES buffer (pH=7.5), 2 mM pimelate, 10 mM MgCl2, 1 mM ATP and 1 mM NADPH. […] The consumption of NADPH was monitored by absorbance at 340 nm.

[3] = Carboxylate reductase activity assay (pimelate semialdehyde to heptanedial); details: purified enzyme enhanced by sfp gene product, 2 mM pimelate semialdehyde, 1 mM ATP, 1 mM NADPH, pH 7.5, room temperature, 20 min, against empty vector control
Experimental: The N-terminal His-tagged carboxylate reductase of SEQ ID NO 7 (see Example 4 and FIG. 7F) was assayed using pimelate semialdehyde as substrate. The enzyme activity assay was performed in triplicate in a buffer composed of a final concentration of 50 mM HEPES buffer (pH=7.5), 2 mM pimelate semialdehyde, 10 mM MgCl2, 1 mM ATP and 1 mM NADPH. The enzyme activity assay reaction was initiated by adding purified carboxylate reductase and phosphopantetheine transferase or the empty vector control to the assay buffer containing the pimelate semialdehyde and then incubated at room temperature for 20 min. The consumption of NADPH was monitored by absorbance at 340 nm.

B1: SEQ ID NO 7: Segniliparus rotundus carboxylate reductase, Genbank Accession No. ADG98140.1 (protein, listed as Segniliparus rotundus)
chain: MTQSHTQGPQASAAHSRLARRAAELLATDPQAAATLPDPEVVRQATRPGLRLAERVDAILSGYADRPALGQRSFQTVKDPITGRSSVELLPTFDTITYRELRERATAIASDLAHHPQAPAKPGDFLASIGFISVDYVAIDIAGVFAGLTAVPLQTGATLATLTAITAETAPTLFAASIEHLPTAVDAVLATPSVRRLLVFDYRAGSDEDREAVEAAKRKIADAGSSVLVDVLDEVIARGKSAPKAPLPPATDAGDDSLSLLIYTSGSTGTPKGAMYPERNVAHFWGGVWAAAFDEDAAPPVPAINITFLPLSHVASRLSLMPTLARGGLMHFVAKSDLSTLFEDLKLARPTNLFLVPRVVEMLYQHYQSELDRRGVQDGTREAEAVKDDLRTGLLGGRILTAGFGSAPLSAELAGFIESLLQIHLVDGYGSTEAGPVWRDGYLVKPPVTDYKLIDVPELGYFSTDSPHPRGELAIKTQTILPGYYKRPETTAEVFDEDGFYLTGDVVAQIGPEQFAYVDRRKNVLKLSQGEFVTLAKLEAAYSSSPLVRQLFVYGSSERSYLLAVIVPTPDALKKFGVGEAAKAALGESLQKIARDEGLQSYEVPRDFIIETDPFTVENGLLSDARKSLRPKLKEHYGERLEAMYKELADGQANELRDIRRGVQQRPTLETVRRAAAAMLGASAAEIKPDAHFTDLGGDSLSALTFSNFLHDLFEVDVPVGVIVSAANTLGSVAEHIDAQLAGGRARPTFATVHGKGSTTIKASDLTLDKFIDEQTLEAAKHLPKPADPPRTVLLTGANGWLGRFLALEWLERLAPAGGKLITIVRGKDAAQAKARLDAAYESGDPKLAGHYQDLAATTLEVLAGDFSEPRLGLDEATWNRLADEVDFISHPGALVNHVLPYNQLFGPNVAGVAEIIKLAITTRIKPVTYLSTVAVAAGVEPSALDEDGDIRTVSAERSVDEGYANGYGNSKWGGEVLLREAHDRTGLPVRVFRSDMILAHQKYTGQVNATDQFTRLVQSLLATGLAPKSFYELDAQGNRQRAHYDGIPVDFTAESITTLGGDGLEGYRSYNVFNPHRDGVGLDEFVDWLIEAGHPITRIDDYDQWLSRFETSLRGLPESKRQASVLPLLHAFARPGPAVDGSPFRNTVFRTDVQKAKIGAEHDIPHLGKALVLKYADDIKQLGLL
acceptance of N7-acetyl-7-aminoheptanoate as substrate (consumption of NADPH, absorbance at 340 nm) [1]: accepted N7-acetyl-7-aminoheptanoate as substrate
acceptance of pimelate as substrate (consumption of NADPH, absorbance at 340 nm) [2]: accepted pimelate as substrate
acceptance of pimelate semialdehyde as substrate, forming heptanedial (consumption of NADPH, absorbance at 340 nm) [3]: accepted pimelate semialdehyde as substrate
